doi:10.1101/2020.08.16.252742 (bioRxiv, 2020)

B1: anti-HIV-1 gp41 monoclonal antibody 10E8 (antibody, V domains shown)
VH: EVQLVESGGGLVKPGGSLRLSCSASGFDFDNAWMTWVRQPPGKGLEWVGRITGPGEGWSVDYAAPVEGRFTISRLNSINFLYLEMNNLRMEDSGLYFCARTGKYYDFWSGYPPGEEYFQDWGRGTLVTVSS
VL: SYELTQETGVSVALGRTVTITCRGDSLRSHYASWYQKKPGQAPILLFYGKNNRPSGVPDRFSGSASGNRASLTISGAQAEDDAEYYCSSRDKSGSRLSVFGGGTKLTVL
B2: anti-HIV-1 gp120 monoclonal antibody PGT145 (antibody, V domains shown)
VH: QVQLVQSGAEVKKPGSSVKVSCKASGNSFSNHDVHWVRQATGQGLEWMGWMSHEGDKTGLAQKFQGRVTITRDSGASTVYMELRGLTADDTAIYYCLTGSKHRLRDYFLYNEYGPNYEEWGDYLATLDVWGHGTAVTVSS
VL: EVVITQSPLFLPVTPGEAASLSCKCSHSLQHSTGANYLAWYLQRPGQTPRLLIHLATHRASGVPDRFSGSGSGTDFTLKISRVESDDVGTYYCMQGLHSPWTFGQGTKVEIK

What was measured:
[1] = target: HIV-1 JR-FL Env glycoprotein (unlabelled) on HIV-1 Gag-GFP pseudovirions (HIV-1 JR-FL, UniProt Q75760, strain); test: single-molecule photobleaching of immunostained virions
[2] = target: HIV-1 NL4-3 Env glycoprotein (unlabelled) on HIV-1 Gag-GFP pseudovirions (HIV-1 group M subtype B, NL4-3 (pNL4-3), strain); test: as above

Binder	binding result [1]	binding result [2]
B1	binds	binds
B2	binds	binds
